Patent CN117624352A (UNIV XIAMEN, dated 2024)

How the values were obtained:
[1] = target: T1, Tmem176b表达纯化抗原142-196aa xy02b-hFc-6His(Abclonal) (mouse, UniProt Q9R1Q6 142-196); experiment: Biacore (SPR); antigen coupled to the chip, 6E8 as analyte at 1.5625-50 nM; mean of 3 runs
T1 construct: range 142-196; also called 体外表达纯化抗原Tmem176b; Tmem176b抗原; not shown: hFc of the xy02b-hFc-6His vector; 6His tag
T1 sequence (looked up): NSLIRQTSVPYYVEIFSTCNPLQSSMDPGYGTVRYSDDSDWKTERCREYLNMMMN

[2] = target: T1, Tmem176b表达纯化抗原142-196aa …; experiment: Capture ELISA; antibody coated at 2 μg/mL, antigen titrated from 0.1 μg/ml in 3-fold steps

Kd [1]: 0.959 nM | EC50 [2]: 0.893 ng/mL
B1: Tmem176b单克隆抗体6E8 (antibody, V domains shown)
VH: QSVEESGGRLLKPDETLTLTCTVSGFSLSSYAMSWVRQAPGKGLEWIGIISIRGNTYYASWAKGRFTISKTSTTVDLKITSPTTEDTATYFCARNTLYSSGWGGSDLWGQGTLVTVSS
VL: AQVLTQTPSPVSAAVGGTVTINCQASQSVYNNNNLAWYQQKPGQPPKLLIYYASTLASGVSSRFKGSGSGTQFTLTISGVQCDDAATYYCQGEFSCSSADCNAFGGGTEVVVKG
notes: Recombinant rabbit monoclonal antibody; also called α-Tmem176b单抗(6E8); Tmem176b单抗6E8
